Measured values as given in patent US20060167220A1, “Methods and compositions for preparing peptides with excellent solubility characteristics in aqueous solution at physiological pH” (priority 2004, published 2006).

Assay: Dissolution test of peptide sample (pH raised stepwise with NaOH until dissolved)
Assay type: physicochemical
Method: For example, a simple dissolution test can be used to evaluate the solubility characteristics of a peptide sample. The test is conveniently carried out at a temperature in the range of from about 20° C. to about 27° C., preferably about 25° C. From about 0.1 to about 0.3 grams of peptide is combined with about 1 to about 3 ml of an aqueous medium. The medium may be deionized water. In the case of T-20 or T-1249, these peptides are mildly acidic. Consequently, the medium optionally may include some initial amount base, e.g., about 17 mM Na2CO3 or the like, to provide a suitable initial pH. […] The mixture is rapidly stirred for 5 to 10 minutes between additional increments. Solids adhering to the sides of the testing vessel should be re-suspended. Rapid mixing should be maintained throughout. Results include observations regarding the clarity of the mixture, time required for dissolution, concentration and amount of caustic used, final pH upon dissolution (if this occurs below pH 9), and the like.
For purposes of the invention, peptides such as T-20, T-1249, and GLP-1, as well as counterparts of these, may be deemed to be in a more desired, deaggregated form if dissolution in accordance with this test occurs at a pH of less than about 8, preferably less than about 7.5. If dissolution occurs at a pH of greater than about 7.5, more preferably greater than about 8, the peptide is deemed to be in a less desired aggregated form. This helps to ensure the practicality of handling the peptide during subsequent processing and handling.

[1] = precipitated with 18% by volume acetonitrile

Acetyl-WQEWEQKITALLEQAQIQQE KNEYELQKLDKWASLWEWF-NH2 (Ac-WQEWEQKITALLEQAQIQQEKNEYELQKLDKWASLWEWF-NH2) [Sample T-1249, ID NO; 20]
Dissolution behavior (precipitated with 14% by volume acetonitrile): dissolved to some degree at a pH of 6.95 but not completely | Dissolution time [1]: 1 h | Final pH at dissolution [1]: 6.69 | Turbidity in words [1]: only very faint turbidity | Dissolution pH (precipitated with 20 to 22 volume percent acetonitrile): around 9 | Dissolution behavior (precipitated with no co-solvent): dissolved very slowly with high turbidity even after 14 to 18 hours and even at a pH of 8
